# Reference: patent US20240270846A1 (published 2024)
# Molecular target: T1, CD3 epsilon homodimer protein (UniProt P07766 23-126)
# T1 construct: also called CD3 (CD3 epsilon)
# Experiment: SPR Biacore T200, CD3 epsilon homodimer on chip, antibody as analyte;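 also: homodimer amine-coupled to a CM4 sensor chip, run at 25 °C in HBS-EP+ buffer, with kinetic parameters derived in Biacore T200 Evaluation Software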
# T1 sequence (P07766 23-126): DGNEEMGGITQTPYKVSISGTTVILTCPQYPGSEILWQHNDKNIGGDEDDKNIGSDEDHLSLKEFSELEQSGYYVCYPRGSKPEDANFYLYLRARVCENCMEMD
row,Binder,KD ratio (KD of CE115HA000 / KD of altered form)
1,"CE115HA000 H chain altered form K52W (antibody, human IgG1, kappa, L234A L235A, N297A, name in Kabat numbering, one-arm antibody) heavy: QVQLVESGGGVVQPGRSLRLSCAASGFTFSNAWMHWVRQAPGKGLEWVAQIWAKSNNYATYYAESVKGRFTISRDDSKNSLYLQMNSLKTEDTAVYYCRYVHYGAYYGVDAWGQGTTVTVSSASTKGPSVFPLAPSSKSTSGGTAALGCLVKDYFPEPVTVSWNSGALTSGVHTFPAVLQSSGLYSLSSVVTVPSSSLGTQTYICNVNHKPSNTKVDKKVEPKSCDKTHTCPPCPAPEAAGGPSVFLFPPKPKDTLMISRTPEVTCVVVDVSHEDPEVKFNWYVDGVEVHNAKTKPREEQYASTYRVVSVLTVLHQDWLNGKEYKCKVSNKALPAPIEKTISKAKGQPREPQVYTLPPSRCELTKNQVSLSCAVKGFYPSDIAVEWESNGQPENNYKTTPPVLDSDGSFFLVSKLTVDKSRWQQGNVFSCSVMHEALHNHYTQKSLSLSPDYKDDDDK EPKSSDKTHTCPPCPAPELLGGPSVFLFPPKPKDTLMISRTPEVTCVVVDVSHEDPEVKFNWYVDGVEVHNAKTKPREEQYNSTYRVVSVLTVLHQDWLNGKEYKCKVSNKALPAPIEKTISKAKGQPREPQVCTLPPSRDELTKNQVSLWCLVKGFYPSDIAVEWESNGQPENNYKTTPPVLDSDGSFFLYSKLTVDKSRWQQGNVFSCSVMHEALHNRYTQKSLSLSP light: DIVMTQSPLSLPVTPGEPASISCRSSQSLVHSNRNTYLHWYQQKPGQAPRLLIYKVSNRFSGVPDRFSGSGSGTDFTLKISRVEAEDVGVYYCGQGTQVPYTFGQGTKLEIKRTVAAPSVFIFPPSDEQLKSGTASVVCLLNNFYPREAKVQWKVDNALQSGNSQESVTEQDSKDSTYSLSSTLTLSKADYEKHKVYACEVTHQGLSSPVTKSFNRGEC",2.69
2,"CE115HA000 H chain altered form K52bD (antibody, human IgG1, kappa, L234A L235A, N297A, name in Kabat numbering, one-arm antibody) heavy: QVQLVESGGGVVQPGRSLRLSCAASGFTFSNAWMHWVRQAPGKGLEWVAQIKADSNNYATYYAESVKGRFTISRDDSKNSLYLQMNSLKTEDTAVYYCRYVHYGAYYGVDAWGQGTTVTVSSASTKGPSVFPLAPSSKSTSGGTAALGCLVKDYFPEPVTVSWNSGALTSGVHTFPAVLQSSGLYSLSSVVTVPSSSLGTQTYICNVNHKPSNTKVDKKVEPKSCDKTHTCPPCPAPEAAGGPSVFLFPPKPKDTLMISRTPEVTCVVVDVSHEDPEVKFNWYVDGVEVHNAKTKPREEQYASTYRVVSVLTVLHQDWLNGKEYKCKVSNKALPAPIEKTISKAKGQPREPQVYTLPPSRCELTKNQVSLSCAVKGFYPSDIAVEWESNGQPENNYKTTPPVLDSDGSFFLVSKLTVDKSRWQQGNVFSCSVMHEALHNHYTQKSLSLSPDYKDDDDK EPKSSDKTHTCPPCPAPELLGGPSVFLFPPKPKDTLMISRTPEVTCVVVDVSHEDPEVKFNWYVDGVEVHNAKTKPREEQYNSTYRVVSVLTVLHQDWLNGKEYKCKVSNKALPAPIEKTISKAKGQPREPQVCTLPPSRDELTKNQVSLWCLVKGFYPSDIAVEWESNGQPENNYKTTPPVLDSDGSFFLYSKLTVDKSRWQQGNVFSCSVMHEALHNRYTQKSLSLSP light: DIVMTQSPLSLPVTPGEPASISCRSSQSLVHSNRNTYLHWYQQKPGQAPRLLIYKVSNRFSGVPDRFSGSGSGTDFTLKISRVEAEDVGVYYCGQGTQVPYTFGQGTKLEIKRTVAAPSVFIFPPSDEQLKSGTASVVCLLNNFYPREAKVQWKVDNALQSGNSQESVTEQDSKDSTYSLSSTLTLSKADYEKHKVYACEVTHQGLSSPVTKSFNRGEC",0.56
3,"CE115HA000 H chain altered form K52bA (antibody, human IgG1, kappa, L234A L235A, N297A, name in Kabat numbering, one-arm antibody) heavy: QVQLVESGGGVVQPGRSLRLSCAASGFTFSNAWMHWVRQAPGKGLEWVAQIKAASNNYATYYAESVKGRFTISRDDSKNSLYLQMNSLKTEDTAVYYCRYVHYGAYYGVDAWGQGTTVTVSSASTKGPSVFPLAPSSKSTSGGTAALGCLVKDYFPEPVTVSWNSGALTSGVHTFPAVLQSSGLYSLSSVVTVPSSSLGTQTYICNVNHKPSNTKVDKKVEPKSCDKTHTCPPCPAPEAAGGPSVFLFPPKPKDTLMISRTPEVTCVVVDVSHEDPEVKFNWYVDGVEVHNAKTKPREEQYASTYRVVSVLTVLHQDWLNGKEYKCKVSNKALPAPIEKTISKAKGQPREPQVYTLPPSRCELTKNQVSLSCAVKGFYPSDIAVEWESNGQPENNYKTTPPVLDSDGSFFLVSKLTVDKSRWQQGNVFSCSVMHEALHNHYTQKSLSLSPDYKDDDDK EPKSSDKTHTCPPCPAPELLGGPSVFLFPPKPKDTLMISRTPEVTCVVVDVSHEDPEVKFNWYVDGVEVHNAKTKPREEQYNSTYRVVSVLTVLHQDWLNGKEYKCKVSNKALPAPIEKTISKAKGQPREPQVCTLPPSRDELTKNQVSLWCLVKGFYPSDIAVEWESNGQPENNYKTTPPVLDSDGSFFLYSKLTVDKSRWQQGNVFSCSVMHEALHNRYTQKSLSLSP light: DIVMTQSPLSLPVTPGEPASISCRSSQSLVHSNRNTYLHWYQQKPGQAPRLLIYKVSNRFSGVPDRFSGSGSGTDFTLKISRVEAEDVGVYYCGQGTQVPYTFGQGTKLEIKRTVAAPSVFIFPPSDEQLKSGTASVVCLLNNFYPREAKVQWKVDNALQSGNSQESVTEQDSKDSTYSLSSTLTLSKADYEKHKVYACEVTHQGLSSPVTKSFNRGEC",0.58
4,"CE115HA000 H chain altered form K52Y (antibody, human IgG1, kappa, L234A L235A, N297A, name in Kabat numbering, one-arm antibody) heavy: QVQLVESGGGVVQPGRSLRLSCAASGFTFSNAWMHWVRQAPGKGLEWVAQIYAKSNNYATYYAESVKGRFTISRDDSKNSLYLQMNSLKTEDTAVYYCRYVHYGAYYGVDAWGQGTTVTVSSASTKGPSVFPLAPSSKSTSGGTAALGCLVKDYFPEPVTVSWNSGALTSGVHTFPAVLQSSGLYSLSSVVTVPSSSLGTQTYICNVNHKPSNTKVDKKVEPKSCDKTHTCPPCPAPEAAGGPSVFLFPPKPKDTLMISRTPEVTCVVVDVSHEDPEVKFNWYVDGVEVHNAKTKPREEQYASTYRVVSVLTVLHQDWLNGKEYKCKVSNKALPAPIEKTISKAKGQPREPQVYTLPPSRCELTKNQVSLSCAVKGFYPSDIAVEWESNGQPENNYKTTPPVLDSDGSFFLVSKLTVDKSRWQQGNVFSCSVMHEALHNHYTQKSLSLSPDYKDDDDK EPKSSDKTHTCPPCPAPELLGGPSVFLFPPKPKDTLMISRTPEVTCVVVDVSHEDPEVKFNWYVDGVEVHNAKTKPREEQYNSTYRVVSVLTVLHQDWLNGKEYKCKVSNKALPAPIEKTISKAKGQPREPQVCTLPPSRDELTKNQVSLWCLVKGFYPSDIAVEWESNGQPENNYKTTPPVLDSDGSFFLYSKLTVDKSRWQQGNVFSCSVMHEALHNRYTQKSLSLSP light: DIVMTQSPLSLPVTPGEPASISCRSSQSLVHSNRNTYLHWYQQKPGQAPRLLIYKVSNRFSGVPDRFSGSGSGTDFTLKISRVEAEDVGVYYCGQGTQVPYTFGQGTKLEIKRTVAAPSVFIFPPSDEQLKSGTASVVCLLNNFYPREAKVQWKVDNALQSGNSQESVTEQDSKDSTYSLSSTLTLSKADYEKHKVYACEVTHQGLSSPVTKSFNRGEC",6.47

# The remaining lines, values ahead:
row,KD ratio (KD of CE115HA000 / KD of altered form),Binder
1,0.61,"CE115HA000 H chain altered form K52bL (antibody, human IgG1, kappa, L234A L235A, N297A, name in Kabat numbering, one-arm antibody) heavy: QVQLVESGGGVVQPGRSLRLSCAASGFTFSNAWMHWVRQAPGKGLEWVAQIKALSNNYATYYAESVKGRFTISRDDSKNSLYLQMNSLKTEDTAVYYCRYVHYGAYYGVDAWGQGTTVTVSSASTKGPSVFPLAPSSKSTSGGTAALGCLVKDYFPEPVTVSWNSGALTSGVHTFPAVLQSSGLYSLSSVVTVPSSSLGTQTYICNVNHKPSNTKVDKKVEPKSCDKTHTCPPCPAPEAAGGPSVFLFPPKPKDTLMISRTPEVTCVVVDVSHEDPEVKFNWYVDGVEVHNAKTKPREEQYASTYRVVSVLTVLHQDWLNGKEYKCKVSNKALPAPIEKTISKAKGQPREPQVYTLPPSRCELTKNQVSLSCAVKGFYPSDIAVEWESNGQPENNYKTTPPVLDSDGSFFLVSKLTVDKSRWQQGNVFSCSVMHEALHNHYTQKSLSLSPDYKDDDDK EPKSSDKTHTCPPCPAPELLGGPSVFLFPPKPKDTLMISRTPEVTCVVVDVSHEDPEVKFNWYVDGVEVHNAKTKPREEQYNSTYRVVSVLTVLHQDWLNGKEYKCKVSNKALPAPIEKTISKAKGQPREPQVCTLPPSRDELTKNQVSLWCLVKGFYPSDIAVEWESNGQPENNYKTTPPVLDSDGSFFLYSKLTVDKSRWQQGNVFSCSVMHEALHNRYTQKSLSLSP light: DIVMTQSPLSLPVTPGEPASISCRSSQSLVHSNRNTYLHWYQQKPGQAPRLLIYKVSNRFSGVPDRFSGSGSGTDFTLKISRVEAEDVGVYYCGQGTQVPYTFGQGTKLEIKRTVAAPSVFIFPPSDEQLKSGTASVVCLLNNFYPREAKVQWKVDNALQSGNSQESVTEQDSKDSTYSLSSTLTLSKADYEKHKVYACEVTHQGLSSPVTKSFNRGEC"
2,0.43,"CE115HA000 H chain altered form K52bN (antibody, human IgG1, kappa, L234A L235A, N297A, name in Kabat numbering, one-arm antibody) heavy: QVQLVESGGGVVQPGRSLRLSCAASGFTFSNAWMHWVRQAPGKGLEWVAQIKANSNNYATYYAESVKGRFTISRDDSKNSLYLQMNSLKTEDTAVYYCRYVHYGAYYGVDAWGQGTTVTVSSASTKGPSVFPLAPSSKSTSGGTAALGCLVKDYFPEPVTVSWNSGALTSGVHTFPAVLQSSGLYSLSSVVTVPSSSLGTQTYICNVNHKPSNTKVDKKVEPKSCDKTHTCPPCPAPEAAGGPSVFLFPPKPKDTLMISRTPEVTCVVVDVSHEDPEVKFNWYVDGVEVHNAKTKPREEQYASTYRVVSVLTVLHQDWLNGKEYKCKVSNKALPAPIEKTISKAKGQPREPQVYTLPPSRCELTKNQVSLSCAVKGFYPSDIAVEWESNGQPENNYKTTPPVLDSDGSFFLVSKLTVDKSRWQQGNVFSCSVMHEALHNHYTQKSLSLSPDYKDDDDK EPKSSDKTHTCPPCPAPELLGGPSVFLFPPKPKDTLMISRTPEVTCVVVDVSHEDPEVKFNWYVDGVEVHNAKTKPREEQYNSTYRVVSVLTVLHQDWLNGKEYKCKVSNKALPAPIEKTISKAKGQPREPQVCTLPPSRDELTKNQVSLWCLVKGFYPSDIAVEWESNGQPENNYKTTPPVLDSDGSFFLYSKLTVDKSRWQQGNVFSCSVMHEALHNRYTQKSLSLSP light: DIVMTQSPLSLPVTPGEPASISCRSSQSLVHSNRNTYLHWYQQKPGQAPRLLIYKVSNRFSGVPDRFSGSGSGTDFTLKISRVEAEDVGVYYCGQGTQVPYTFGQGTKLEIKRTVAAPSVFIFPPSDEQLKSGTASVVCLLNNFYPREAKVQWKVDNALQSGNSQESVTEQDSKDSTYSLSSTLTLSKADYEKHKVYACEVTHQGLSSPVTKSFNRGEC"
